Where a chain is given by its changes, count along the chain named.
B1: Fab ESC11 (Fab, V domains shown)
VH: HVQLQESGPGLVKPSETLSLTCTVSGGSISSNNYYWGWIRQTPGKGLEWIGSIYYSGSTNYNPSLKSRVTISVDTSKNQFSLKLSSVTAADTAVYYCARGARWQARPATRIDGVAFDIWGQGTMVTVSS
VL: ETTLTQSPGTLSLSPGERATLSCRASQTVTRNYLAWYQQKPGQAPRLLMYGASNRAAGVPDRFSGSGSGTDFTLTISRLEPEDFAVYYCQQFGSPYTFGQGTKVEIK
notes: Fully human Fab from a non-immunized phage library, made in E. coli TG-1, with myc tag and His tag
B2: ESC11 IgG1 (antibody, V domains shown)
VH: B1 VH with H1Q
VL: B1 VL
notes: Variable domains cloned into a full human IgG1 format, made in NS0 cells; also called IgG1 antibody ESC11; ESC11 antibody
B3: Fab ESC14 (Fab, V domains shown)
VH: EVQLVQSGAEVKKPGASVKVSCKASGYTFTSYGISWVRQAPGQGLEWMGWISAYNGNTNYAQKLQGRVTMTTDTSTSTAYMELRSLRSDDTAVYYCARDWSRSGYYLPDYWGQGTLVTVSS
VL: DVVMTQSPLSLPVTLGQPASISCRSSQSLLHSNGYNYLDWYLQRPGQSPHLLIFLGSNRASGVPDRFSGSGSGTDFTLKISRVEAEDVGIYYCMQALQTPPTFGQGTKVEIK
notes: as for B1
B4: ESC14 IgG1 (antibody, V domains shown)
VH: B3 VH
VL: B3 VL
notes: Variable domains cloned into a full human IgG1 format, made in NS0 cells; also called IgG1 antibody ESC14; ESC14 antibody

Key:
[1] = biological target: T1, human dipeptidyl peptidase IV (DPPIV, CD26), expressed in HEK293 cells (human, UniProt P27487 1-766); assay: ELISA on cell-lysate-coated plates (HEK293 huCD26+), Fig. 3
T1 construct: whole, on cells; Used as lysate of transfected HEK293 cells coated on plates (ELISA), on the cells (flow cytometry screening) and as immunoprecipitate; also called huCD26; HEK293 huCD26+
T1 sequence (P27487 whole entry): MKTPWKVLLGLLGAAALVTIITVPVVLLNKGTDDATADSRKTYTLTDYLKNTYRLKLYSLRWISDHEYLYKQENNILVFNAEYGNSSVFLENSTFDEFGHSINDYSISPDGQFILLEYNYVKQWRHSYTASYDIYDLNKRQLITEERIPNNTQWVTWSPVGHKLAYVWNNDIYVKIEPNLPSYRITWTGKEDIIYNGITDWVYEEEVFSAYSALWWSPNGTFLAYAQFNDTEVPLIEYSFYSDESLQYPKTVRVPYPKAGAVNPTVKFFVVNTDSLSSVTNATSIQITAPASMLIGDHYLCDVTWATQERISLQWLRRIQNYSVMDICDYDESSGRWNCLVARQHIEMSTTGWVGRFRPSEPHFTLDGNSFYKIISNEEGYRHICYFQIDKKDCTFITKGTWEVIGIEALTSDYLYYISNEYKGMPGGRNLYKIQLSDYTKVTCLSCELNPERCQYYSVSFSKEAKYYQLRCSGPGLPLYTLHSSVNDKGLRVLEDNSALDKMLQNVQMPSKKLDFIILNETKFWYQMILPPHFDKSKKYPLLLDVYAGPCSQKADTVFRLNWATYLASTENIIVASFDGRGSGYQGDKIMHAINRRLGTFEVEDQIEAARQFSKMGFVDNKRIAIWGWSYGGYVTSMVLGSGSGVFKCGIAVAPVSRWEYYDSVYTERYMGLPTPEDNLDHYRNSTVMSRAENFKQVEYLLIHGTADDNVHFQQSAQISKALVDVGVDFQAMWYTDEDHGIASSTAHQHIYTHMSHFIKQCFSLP

[2] = biological target: T2, huFAP coated on a surface plasmon resonance chip (human, UniProt Q12884 26-760, limits assumed); assay: surface plasmon resonance, low-density huFAP coated chip
T2 construct: also called human FAP
T2 sequence (looked up): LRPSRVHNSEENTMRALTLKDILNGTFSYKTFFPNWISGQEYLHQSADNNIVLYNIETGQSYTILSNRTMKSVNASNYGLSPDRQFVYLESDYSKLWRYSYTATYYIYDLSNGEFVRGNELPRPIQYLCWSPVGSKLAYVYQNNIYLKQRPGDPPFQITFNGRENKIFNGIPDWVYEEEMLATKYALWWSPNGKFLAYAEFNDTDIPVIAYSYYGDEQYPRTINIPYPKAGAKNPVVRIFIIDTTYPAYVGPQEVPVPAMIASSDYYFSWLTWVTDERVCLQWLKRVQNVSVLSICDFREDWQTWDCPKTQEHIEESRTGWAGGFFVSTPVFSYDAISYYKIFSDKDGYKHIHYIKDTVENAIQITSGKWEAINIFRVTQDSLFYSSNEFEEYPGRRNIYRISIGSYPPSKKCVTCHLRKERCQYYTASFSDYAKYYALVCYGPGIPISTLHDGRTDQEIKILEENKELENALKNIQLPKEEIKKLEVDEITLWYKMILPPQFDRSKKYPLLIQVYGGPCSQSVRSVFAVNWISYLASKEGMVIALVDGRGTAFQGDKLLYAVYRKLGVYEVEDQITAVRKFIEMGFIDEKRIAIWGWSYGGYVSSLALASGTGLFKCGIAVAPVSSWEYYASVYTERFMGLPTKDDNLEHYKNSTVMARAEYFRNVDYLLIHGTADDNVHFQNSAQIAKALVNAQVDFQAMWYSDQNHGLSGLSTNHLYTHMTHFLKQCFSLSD

[3] = biological target: T3, murine Fibroblast Activation Protein (FAP), expressed in HEK293 cells (mouse, UniProt P97321 1-761); assay: serial dilutions of Fab on 293 muFAP+ cells
T3 construct: whole, on cells; Used on transfected HEK293 cells (flow cytometry) and as lysate of those cells coated on plates (ELISA); also called mouse FAP; muFAP
T3 sequence (looked up): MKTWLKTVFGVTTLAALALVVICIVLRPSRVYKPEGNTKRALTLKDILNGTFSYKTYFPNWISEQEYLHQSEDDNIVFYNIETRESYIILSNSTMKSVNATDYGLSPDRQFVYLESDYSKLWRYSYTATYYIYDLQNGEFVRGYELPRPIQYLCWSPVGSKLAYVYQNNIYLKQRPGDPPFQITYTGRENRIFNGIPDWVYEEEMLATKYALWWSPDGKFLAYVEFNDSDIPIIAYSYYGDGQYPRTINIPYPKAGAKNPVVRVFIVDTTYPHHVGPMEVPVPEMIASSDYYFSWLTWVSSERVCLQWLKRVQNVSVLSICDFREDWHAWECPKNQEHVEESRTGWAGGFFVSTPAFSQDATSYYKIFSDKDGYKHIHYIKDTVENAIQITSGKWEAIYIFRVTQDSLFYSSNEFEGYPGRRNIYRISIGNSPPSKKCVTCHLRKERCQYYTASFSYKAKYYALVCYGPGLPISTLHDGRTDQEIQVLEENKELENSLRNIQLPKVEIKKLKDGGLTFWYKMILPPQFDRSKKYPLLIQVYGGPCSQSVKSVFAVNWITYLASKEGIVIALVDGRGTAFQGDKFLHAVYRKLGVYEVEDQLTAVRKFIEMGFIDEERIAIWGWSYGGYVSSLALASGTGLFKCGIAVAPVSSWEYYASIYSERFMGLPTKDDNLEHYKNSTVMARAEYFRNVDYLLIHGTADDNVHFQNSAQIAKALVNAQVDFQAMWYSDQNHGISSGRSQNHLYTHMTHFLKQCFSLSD

[4] = biological target: T4, human Fibroblast Activation Protein (FAP), expressed in transfected cells (human, UniProt Q12884 1-760); assay: binding to antigen expressing cell lines, apparent KD of bivalent IgG
T4 construct: whole, on cells; Used on transfected HT1080 / HEK293 cells (flow cytometry), as lysates of those cells coated on plates (ELISA) and as immunoprecipitate from their extracts; also called human FAP; huFAP
T4 sequence (looked up): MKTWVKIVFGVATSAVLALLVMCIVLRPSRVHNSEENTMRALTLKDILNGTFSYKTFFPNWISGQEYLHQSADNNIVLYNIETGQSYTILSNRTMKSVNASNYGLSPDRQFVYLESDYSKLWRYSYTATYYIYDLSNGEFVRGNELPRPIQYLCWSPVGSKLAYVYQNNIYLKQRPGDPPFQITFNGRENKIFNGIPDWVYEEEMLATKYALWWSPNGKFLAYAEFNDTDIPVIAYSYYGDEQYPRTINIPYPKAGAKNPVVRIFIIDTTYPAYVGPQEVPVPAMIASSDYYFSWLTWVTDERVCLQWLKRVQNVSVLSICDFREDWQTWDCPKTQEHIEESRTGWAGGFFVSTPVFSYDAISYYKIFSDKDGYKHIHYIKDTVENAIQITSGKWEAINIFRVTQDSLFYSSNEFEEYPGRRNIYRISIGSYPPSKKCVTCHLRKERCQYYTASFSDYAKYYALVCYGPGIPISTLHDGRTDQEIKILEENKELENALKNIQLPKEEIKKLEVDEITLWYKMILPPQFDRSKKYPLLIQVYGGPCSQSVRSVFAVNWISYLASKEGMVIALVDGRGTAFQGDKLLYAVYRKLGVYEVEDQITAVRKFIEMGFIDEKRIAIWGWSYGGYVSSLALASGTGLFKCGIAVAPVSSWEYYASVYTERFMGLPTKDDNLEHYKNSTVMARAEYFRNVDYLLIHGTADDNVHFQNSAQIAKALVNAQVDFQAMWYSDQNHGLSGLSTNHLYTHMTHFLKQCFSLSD

Row | Binder | binding result [1] | Kd [2] [nM] | Kd [3] [nM] | Kd [4] [nM]
1 | B1 | no binding (tested: 100 nM) | 10 | 51 | 
2 | B2 |  |  |  | ~1
3 | B3 | no binding (tested: 100 nM) | 210 | 251 | 
4 | B4 |  |  |  | ~1
